Experimental data taken from US20090170219, “Nucleic acid capable of binding to immunoglobulin G and use thereof” (published 2009).

Assays:
[1] = target: T1, IgG1 (human, UniProt P01857-1 P01857-1:1-330); assay: SPR; +++ in Table 4; binding not reduced in 500 mM NaCl, 2 mM MgCl2; settings: tags: Calbiochem; chain copies: 2
[2] = target: T1, IgG1; assay: SPR; text says higher than SEQ 17, table shows equal; settings: tags: Calbiochem; chain copies: 2
Method: (§1) Used for the measurements was BIAcore 2000 manufactured by BIAcore. Used as the sensor chip was the SA chip having streptavidin immobilized thereon. Bound thereto was about 1000 RU of 16-residue Poly dT having biotin bound to the 5′ end thereof. The RNA for use as the ligand had 16-residue Poly A added to the 3′ end thereof, and immobilized to the SA chip via a bond between dT and A. The amount immobilized was adjusted to about 1000 RU by injecting 60 μL at a concentration of 0.01 μg/μL. 70 μL of IgG-Fc for analyte (manufactured by Athens Research & Technology), adjusted to 0.6 μM, was injected. The running buffer used had the same components as those of the solution A used in SELEX.
The RNAs were prepared by chemical synthesis (manufactured by Gene Design). Their binding affinities were measured by a surface plasmon resonance method as in Example 1. Used as the IgG was human IgG1 (manufactured by Calbiochem).

[3] = target: T1, IgG1; assay: SPR; solution A: 145 mM NaCl, 5.4 mM KCl, 1.8 mM CaCl2, 0.8 mM MgCl2, 20 mM Tris pH 7.6; settings: tags: Calbiochem; chain copies: 2; label: 3' A16 tail for immobilisation; GGUGCU bulge
Method: as §1
The dissociation constant was determined by immobilizing an RNA having 16-residue PolyA added to the 3′ end thereof onto a sensor chip via an A-dT bond, injecting different concentrations of IgG (0.6 μM to 0.05 μM), and performing surface plasmon resonance.

[4] = target: IgG2a (mouse, UniProt P01863 P01863:98-330); assay: SPR; settings: tags: Chemicon International, chain copies: 2, label: 3' A16 tail for immobilisation
IgG2a, sequence (P01863 98-330, one chain of several): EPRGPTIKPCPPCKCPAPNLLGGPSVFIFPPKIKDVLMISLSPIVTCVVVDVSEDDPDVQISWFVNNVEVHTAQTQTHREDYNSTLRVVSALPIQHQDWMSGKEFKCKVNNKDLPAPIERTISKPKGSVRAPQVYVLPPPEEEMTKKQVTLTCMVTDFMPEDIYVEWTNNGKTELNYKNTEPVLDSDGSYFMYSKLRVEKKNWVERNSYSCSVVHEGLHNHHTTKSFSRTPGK
Method: as §1
(§2) Whether or not the prepared RNA aptamers also have binding affinity for subclasses of IgG other than human IgG1 or for IgG of animal species other than humans was determined using a surface plasmon resonance method. Measurements were performed in the same manner as Example 1 by immobilizing a nucleic acid having 16-residue Poly A added thereto via an A-pT bond, and injecting IgG thereto. Used as the RNA aptamers were the nucleic acids shown by SEQ ID NO:1 and 17. Used as the antibodies were human IgG1 (manufactured by Calbiochem), human IgG2 (manufactured by Calbiochem), human IgG3 (manufactured by Calbiochem), human IgG4 (manufactured by Calbiochem), mouse IgG1 (manufactured by Chemicon International), mouse IgG2a (manufactured by Chemicon International), mouse IgG2b (manufactured by Zymed Laboratories), mouse IgG3 (manufactured by Bethyl Laboratories), rat IgG1 (manufactured by R & D Systems), rat IgG2a. (manufactured by Zymed Laboratories), rat IgG2b. (manufactured by Zymed Laboratories), rat IgG2c (manufactured by UK-Serotec), rabbit IgG (manufactured by Zymed Laboratories), bovine IgG1 (manufactured by Bethyl Laboratories), bovine IgG2 (manufactured by Bethyl Laboratories), chicken IgG (manufactured by Rockland), dog IgG (manufactured by Rockland), cat IgG (manufactured by Bethyl Laboratories), guinea pig IgG (manufactured by Biogenesis), hamster IgG (manufactured by Rockland), and swine IgG (manufactured by Rockland).

[5] = target: IgG3 (human, UniProt P01860-1 P01860-1:99-377); assay: SPR; settings: tags: Calbiochem, chain copies: 2, label: 3' A16 tail for immobilisation
IgG3, sequence (P01860 other isoform, or with tags, fused parts or gaps): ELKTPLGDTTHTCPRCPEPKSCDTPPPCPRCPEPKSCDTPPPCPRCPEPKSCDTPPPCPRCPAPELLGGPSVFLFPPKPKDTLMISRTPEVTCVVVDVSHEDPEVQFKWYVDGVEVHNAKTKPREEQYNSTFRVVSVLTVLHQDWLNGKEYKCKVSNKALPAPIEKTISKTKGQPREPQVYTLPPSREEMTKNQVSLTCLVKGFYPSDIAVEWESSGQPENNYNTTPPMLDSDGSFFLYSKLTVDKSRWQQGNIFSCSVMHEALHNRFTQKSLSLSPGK
Method: as §1, §2

[6] = target: IgG4 (human, UniProt P01861-1 P01861-1:99-327); assay: SPR; settings: tags: Calbiochem, chain copies: 2, label: 3' A16 tail for immobilisation
IgG4, sequence (P01861 other isoform, or with tags, fused parts or gaps): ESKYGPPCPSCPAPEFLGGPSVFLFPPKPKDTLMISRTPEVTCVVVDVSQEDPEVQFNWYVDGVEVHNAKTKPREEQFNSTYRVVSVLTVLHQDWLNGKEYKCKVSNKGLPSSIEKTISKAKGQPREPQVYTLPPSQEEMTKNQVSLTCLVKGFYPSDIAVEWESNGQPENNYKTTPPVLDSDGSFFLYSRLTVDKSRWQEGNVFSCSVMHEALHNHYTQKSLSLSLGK
Method: as §1, §2

[7] = target: IgG (rabbit, UniProt P01870 P01870:1-323); assay: SPR; settings: tags: Zymed Laboratories, chain copies: 2, label: 3' A16 tail for immobilisation
IgG, sequence (P01870 whole entry, one chain of several): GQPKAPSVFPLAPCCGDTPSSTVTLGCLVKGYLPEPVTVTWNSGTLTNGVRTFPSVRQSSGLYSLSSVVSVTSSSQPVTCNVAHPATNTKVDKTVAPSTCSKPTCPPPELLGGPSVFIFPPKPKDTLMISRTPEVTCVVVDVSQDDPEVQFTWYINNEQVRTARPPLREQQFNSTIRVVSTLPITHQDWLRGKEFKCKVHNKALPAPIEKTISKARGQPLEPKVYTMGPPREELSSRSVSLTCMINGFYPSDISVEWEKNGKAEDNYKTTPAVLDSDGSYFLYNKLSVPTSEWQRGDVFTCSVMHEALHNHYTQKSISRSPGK
Method: as §1, §2

[8] = target: IgG2b (mouse, UniProt P01867-2 P01867-2:98-335); assay: SPR; settings: tags: Zymed Laboratories, chain copies: 2, label: 3' A16 tail for immobilisation
IgG2b, sequence (P01867 other isoform, or with tags, fused parts or gaps): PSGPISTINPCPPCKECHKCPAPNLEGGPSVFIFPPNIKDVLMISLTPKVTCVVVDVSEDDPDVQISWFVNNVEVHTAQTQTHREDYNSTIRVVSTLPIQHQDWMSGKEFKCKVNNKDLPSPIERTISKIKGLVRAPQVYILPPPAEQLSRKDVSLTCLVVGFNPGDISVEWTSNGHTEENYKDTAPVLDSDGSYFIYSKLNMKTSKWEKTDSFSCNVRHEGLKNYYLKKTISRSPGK
Method: as §1, §2

[9] = target: IgG2 (human, UniProt P01859-1 P01859-1:99-326); assay: SPR; settings: tags: Calbiochem, chain copies: 2, label: 3' A16 tail for immobilisation
IgG2, sequence (P01859 other isoform, or with tags, fused parts or gaps): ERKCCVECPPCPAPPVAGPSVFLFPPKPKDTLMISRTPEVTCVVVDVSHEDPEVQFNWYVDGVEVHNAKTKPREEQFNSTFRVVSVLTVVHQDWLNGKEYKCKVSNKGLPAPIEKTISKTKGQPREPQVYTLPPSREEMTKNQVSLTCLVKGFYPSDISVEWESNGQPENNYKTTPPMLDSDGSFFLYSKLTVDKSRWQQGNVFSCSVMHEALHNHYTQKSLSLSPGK
Method: as §1, §2

[10] = target: IgG2c (rat, UniProt P20762 P20762:1-329); assay: SPR; settings: tags: UK-Serotec, chain copies: 2, label: 3' A16 tail for immobilisation
IgG2c, sequence (P20762 whole entry, one chain of several): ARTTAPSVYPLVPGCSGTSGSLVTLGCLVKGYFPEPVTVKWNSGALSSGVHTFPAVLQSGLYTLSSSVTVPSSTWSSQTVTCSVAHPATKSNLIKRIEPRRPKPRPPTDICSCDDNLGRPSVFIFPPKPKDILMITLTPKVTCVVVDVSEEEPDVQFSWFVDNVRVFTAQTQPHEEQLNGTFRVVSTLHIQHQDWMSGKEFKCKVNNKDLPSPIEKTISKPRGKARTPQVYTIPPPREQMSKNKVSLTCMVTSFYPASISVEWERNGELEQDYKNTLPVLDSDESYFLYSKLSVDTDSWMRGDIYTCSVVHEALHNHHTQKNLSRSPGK
Method: as §1, §2

[11] = target: Protein A (UniProt P02976 P02976:37-485); assay: SPR; control; Protein A bound only when IgG1 was on the aptamer; settings: tags: MP Biomedicals; label: 3' A16 tail for immobilisation; GGUGCU bulge
Protein A, sequence (P02976 37-485, one chain of several): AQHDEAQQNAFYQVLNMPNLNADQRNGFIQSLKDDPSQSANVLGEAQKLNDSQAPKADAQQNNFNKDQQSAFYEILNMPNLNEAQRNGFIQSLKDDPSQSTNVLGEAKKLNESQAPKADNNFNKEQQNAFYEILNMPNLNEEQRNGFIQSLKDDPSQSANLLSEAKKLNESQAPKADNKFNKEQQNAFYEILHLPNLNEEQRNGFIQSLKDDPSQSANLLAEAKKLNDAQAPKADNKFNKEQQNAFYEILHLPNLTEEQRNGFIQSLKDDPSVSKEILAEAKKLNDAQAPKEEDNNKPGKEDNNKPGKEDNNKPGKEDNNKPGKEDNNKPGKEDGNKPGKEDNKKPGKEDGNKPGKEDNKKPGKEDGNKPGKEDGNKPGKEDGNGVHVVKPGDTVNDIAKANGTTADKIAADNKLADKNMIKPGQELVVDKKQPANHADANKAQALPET
Method: as §1

[12] = target: T1, IgG1; assay: SPR; solution A; short aptamers fit bivalent 1:2 model better; settings: tags: Calbiochem; chain copies: 2; label: 3' A16 tail for immobilisation

T1 sequence (P01857 other isoform, or with tags, fused parts or gaps): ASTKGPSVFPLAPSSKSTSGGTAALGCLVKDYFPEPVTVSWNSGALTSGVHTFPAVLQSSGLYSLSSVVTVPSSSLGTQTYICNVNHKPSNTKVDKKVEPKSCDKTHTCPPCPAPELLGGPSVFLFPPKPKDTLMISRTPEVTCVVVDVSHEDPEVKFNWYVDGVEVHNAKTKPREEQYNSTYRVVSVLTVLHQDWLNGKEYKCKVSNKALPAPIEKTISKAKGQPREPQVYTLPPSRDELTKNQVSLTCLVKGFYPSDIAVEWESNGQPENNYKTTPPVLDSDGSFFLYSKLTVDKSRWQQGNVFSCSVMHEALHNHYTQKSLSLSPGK

B1: SEQ ID NO:17-7 (23F23) (mixed)
RNA: GGAGGUGCUCCGAAAGGAACUCCAAAAAAAAAAAAAAAA
modifications: deoxy G1 G2 C8 C10 C11 G12-A15 A18 A19 C22 C23 and A16 tail; 2'-F U6 U9 C20 U21; rest 2'-OH
B1: binds [1].

B2: SEQ ID NO:17-9 (23F32) (mixed)
RNA: GGAGGUGCUCCGAAAGGAACUCCAAAAAAAAAAAAAAAA
modifications: as 17-7 with 2'-OMe G16
B2: binds [2].

B3: SEQ ID NO:1 (ssRNA)
RNA: GGGACACAAUGGACGAGUUACAGGUGCUCCAUCAACAAAAUGUUACAUGGAACUGUAACGGCCGACAUGAGAG
modifications: 2'-F at all pyrimidines
With B3 the Kd [3] was 0.3 nM, the binding result ([4]; GGUGCU bulge) was “no binding” and the binding result ([5]; GGUGCU bulge) was “binds”. B3: binds ([6]; GGUGCU bulge); no binding ([7]; GGUGCU bulge); no binding ([8]; GGUGCU bulge). B3: binds ([9]; GGUGCU bulge); no binding ([10]; GGUGCU bulge); no binding [11].

B4: SEQ ID NO:17 (ssRNA)
RNA: GGAGGUGCUCCGAAAGGAACUCC
modifications: 2'-F at all pyrimidines
B4: no binding [4]; binds [5]; binds [6]. B4: no binding [7]; no binding [8]; binds [9]. For the same binder, the binding result [10] was “no binding” and the Kd [12] was 10 nM.
